Entries after “also recorded” stand apart in the source; their conditions may differ. Values belong to the molecule of their own block, whether it stands above or below them.
What was measured:
hIGF2R-ECD [1] = target: T1, hIGF2R-ECD (Homo sapiens, UniProt P11717); experiment: Competition ELISA with 13F11-A647 on immobilized hIGF2R-ECD; format: binding; conditions: for competition with 13F11 for binding to hIGF2R-ECD: 10 nM 13F11-A647, 250 nM unconjugated competitor
T1 construct: recombinant human extracellular domain of IGF2R (hIGF2R-ECD)
Description: With the term “compete” is meant that in a competition assay, such as for instance described in Example 5 and Example 8 of the present invention, the addition of a binding molecule induces a significant decrease in binding of a given VHH, i.e., the VHH to which the competing is determined. “Significant” in this respect is preferably a decrease of >5%, preferably >10% when 250 nM of a binding molecule is added to 10 nM of a fluorescence labelled VHH in an ELISA. […] The same test conditions and threshold apply to a binding molecule directed to PDGFRB when determining whether a binding molecule competes with a given VHH.
From the panel of 15 hIGF2R specific binders (FIG. 2), VHHs 13A8, 13A12, 13C11, 13E8, 13F11 and 13G10 were chosen for further characterization. A competition assay was performed to determine if the selected VHHs recognize distinct epitopes on hIGF2R. For this, a non-saturating amount (10 nM) of 13F11 conjugated to Alexa Fluor 647 (13F11-A647, conjugation method as described in example 9.2) was incubated with immobilized hIGF2R-ECD in the presence of unconjugated competitor (250 nM) (FIG. 10). Incubation of hIGF2R-ECD with 13F11-A647+13F11 was used as a positive control and incubation of hIGF2R-ECD with only 13F11-A647 was used to define the maximal fluorescence intensity.

[2] = In vivo pharmacokinetics in healthy Sprague-Dawley rats (serum ELISA); set-up: species or system rat
Description: The in vivo pharmacokinetic properties of 13F11-13E8-ABD was compared to 13F11-13E8 without the ABD moiety in healthy Sprague-Dawley rats. In brief, rats were dosed intravenously with approximately 3 mg/kg body weight and blood samples were taken at different time points and the concentration of the VHH constructs were determined using an ELISA on immobilized hIGF2R-ECD.

IGF2R = target: T2, IGF2R (Rattus norvegicus, UniProt G3V824); experiment: Immunofluorescence staining of tissue cryo-sections of BDL and SHAM rats
T2 construct: from tissue; host or cells: cryo-sections of liver and other tissues, and liver in vivo, of Sprague-Dawley BDL and SHAM rats
T2 sequence (G3V824 36-2481): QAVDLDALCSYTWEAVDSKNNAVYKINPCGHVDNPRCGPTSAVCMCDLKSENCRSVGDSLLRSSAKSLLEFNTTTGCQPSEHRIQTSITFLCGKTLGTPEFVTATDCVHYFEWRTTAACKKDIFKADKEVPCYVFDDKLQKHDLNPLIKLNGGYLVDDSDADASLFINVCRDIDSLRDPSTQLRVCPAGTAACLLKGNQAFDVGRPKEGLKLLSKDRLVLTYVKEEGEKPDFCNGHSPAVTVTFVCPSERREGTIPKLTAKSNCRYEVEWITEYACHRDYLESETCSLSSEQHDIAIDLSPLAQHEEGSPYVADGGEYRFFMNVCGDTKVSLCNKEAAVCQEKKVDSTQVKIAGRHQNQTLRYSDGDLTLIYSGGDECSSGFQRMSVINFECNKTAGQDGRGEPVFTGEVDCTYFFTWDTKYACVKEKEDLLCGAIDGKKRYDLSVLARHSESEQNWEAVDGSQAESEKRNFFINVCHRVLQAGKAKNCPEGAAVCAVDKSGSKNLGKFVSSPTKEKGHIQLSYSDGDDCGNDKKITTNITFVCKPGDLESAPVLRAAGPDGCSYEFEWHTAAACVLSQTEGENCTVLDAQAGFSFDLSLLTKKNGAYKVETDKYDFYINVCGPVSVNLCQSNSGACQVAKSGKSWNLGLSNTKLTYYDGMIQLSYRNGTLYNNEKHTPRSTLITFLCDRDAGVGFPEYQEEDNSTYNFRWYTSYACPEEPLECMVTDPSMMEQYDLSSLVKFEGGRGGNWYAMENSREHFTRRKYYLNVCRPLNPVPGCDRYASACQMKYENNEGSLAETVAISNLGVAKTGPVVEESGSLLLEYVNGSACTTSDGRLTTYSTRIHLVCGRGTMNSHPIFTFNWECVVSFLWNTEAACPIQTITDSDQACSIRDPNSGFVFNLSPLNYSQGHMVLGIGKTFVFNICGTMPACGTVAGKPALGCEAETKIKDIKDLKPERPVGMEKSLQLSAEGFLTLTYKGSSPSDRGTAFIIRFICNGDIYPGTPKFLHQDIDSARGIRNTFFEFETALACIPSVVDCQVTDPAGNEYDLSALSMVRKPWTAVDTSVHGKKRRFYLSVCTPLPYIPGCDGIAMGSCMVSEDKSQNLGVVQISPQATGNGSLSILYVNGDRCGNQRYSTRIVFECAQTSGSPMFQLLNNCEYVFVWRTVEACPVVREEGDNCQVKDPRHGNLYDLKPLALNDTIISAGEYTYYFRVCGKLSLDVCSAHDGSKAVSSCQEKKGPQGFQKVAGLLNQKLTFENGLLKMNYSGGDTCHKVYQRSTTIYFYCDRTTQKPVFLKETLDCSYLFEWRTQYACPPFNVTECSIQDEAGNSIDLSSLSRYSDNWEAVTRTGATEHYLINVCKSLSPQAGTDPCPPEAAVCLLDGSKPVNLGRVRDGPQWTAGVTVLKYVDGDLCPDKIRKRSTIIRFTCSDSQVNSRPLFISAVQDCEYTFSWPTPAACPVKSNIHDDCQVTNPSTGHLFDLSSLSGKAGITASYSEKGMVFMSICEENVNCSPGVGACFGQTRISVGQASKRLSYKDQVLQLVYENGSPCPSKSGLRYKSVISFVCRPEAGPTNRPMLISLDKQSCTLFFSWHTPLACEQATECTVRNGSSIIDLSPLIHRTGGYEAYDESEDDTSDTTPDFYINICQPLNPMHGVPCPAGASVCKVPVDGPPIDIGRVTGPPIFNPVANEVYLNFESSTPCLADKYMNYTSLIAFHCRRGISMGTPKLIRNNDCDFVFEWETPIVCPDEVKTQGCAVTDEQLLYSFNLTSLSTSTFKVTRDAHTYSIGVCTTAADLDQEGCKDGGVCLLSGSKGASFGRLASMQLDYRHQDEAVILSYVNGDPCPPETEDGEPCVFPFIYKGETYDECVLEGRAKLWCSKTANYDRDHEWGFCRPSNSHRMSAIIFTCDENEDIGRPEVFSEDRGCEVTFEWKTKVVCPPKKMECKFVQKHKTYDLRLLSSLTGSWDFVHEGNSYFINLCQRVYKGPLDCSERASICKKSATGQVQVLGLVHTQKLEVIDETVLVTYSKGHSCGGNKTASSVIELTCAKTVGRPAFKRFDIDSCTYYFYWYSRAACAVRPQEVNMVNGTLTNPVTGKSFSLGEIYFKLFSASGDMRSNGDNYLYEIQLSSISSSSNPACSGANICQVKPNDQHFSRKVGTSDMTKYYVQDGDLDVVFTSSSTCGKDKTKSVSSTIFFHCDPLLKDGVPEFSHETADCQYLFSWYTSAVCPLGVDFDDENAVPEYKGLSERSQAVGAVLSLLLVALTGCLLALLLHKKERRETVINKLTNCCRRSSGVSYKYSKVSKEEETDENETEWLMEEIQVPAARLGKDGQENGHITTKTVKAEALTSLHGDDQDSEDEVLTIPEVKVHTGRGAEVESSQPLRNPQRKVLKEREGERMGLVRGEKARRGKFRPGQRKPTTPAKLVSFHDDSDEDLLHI
Description: After cryo-sectioning, the tissue sections were stained with 50 nM fluorescent 13F11-13E8-ABD-AF647 and incubated overnight at 4° C. Subsequently, the sections were washed and stained with DAPI and mounted with mowiol mounting medium (Merck) and were imaged on a Zeiss LSM700 laser scanning confocal microscope with a 20× objective.

hIGF2R-ECD [3] = target: T1, hIGF2R-ECD; experiment: Binding assay / titration ELISA on recombinant hIGF2R-ECD; conditions: construct conjugated to Alexa Fluor 647, direct read out; KD+SEM, n=2; read-out: calculated affinity (KD)
Description: The 15 unique hIGF2R binders (Example 1.1, FIG. 2) were produced and purified as described in examples 2 and 3. The apparent affinities were determined with binding assays on hIGF2R-ECD. Briefly, three-fold serial VHH dilutions, starting from 1 μM, were added onto hIGF2R-ECD coated plates. After 2 hours of incubation, plates were washed and bound VHH was detected using a VHH-specific IgG antibody, followed by an IRD800CW-conjugated IgG-specific antibody. […] VHH 13F11 was also produced with a C-terminal free cysteine and conjugated using maleimide chemistry to Alexa Fluor 647 (13F11-A647 in FIG. 8A, conjugation method as described in example 9.2). A titration ELISA (direct read out at 647 nm) with this construct was carried out on hIGF2R-ECD to determine whether the affinity was affected after site directed conjugation (FIG. 8B). The KD and Bmax were calculated in Graphpad (version 8.3), using one-site specific binding analysis (FIG. 8C).
Based on their high affinity and binding to non-overlapping receptor epitopes, VHHs 13F11 and 13E8 were selected for the design of biparatopic and bivalent VHH constructs. Two VHHs were fused with a flexible linker, consisting of three Gly-Gly-Gly-Gly-Ser repeats (FIG. 8A). The sequences were codon optimized for expression in E. coli and obtained as synthesized DNA fragments from GeneArt. The DNA fragments encoding VHHs were cloned into a vector pET28-based vector introducing a C-terminal free cysteine for site-directed conjugation and His6 tag for IMAC purification (FIG. 8A). The constructs were produced and purified as described in example 3. The constructs were conjugated to Alexa Fluor 647 (conjugation method as described in example 9.2) and titration ELISAs on recombinant hIGF2R-ECD (as described in example 4.1) were performed to determine the KD and Bmax (calculated in Graphpad (version 8.3), using one-site specific binding analysis) (FIG. 8C).
Next, 13F11-13E8 was genetically re-engineered to include an in vivo half-life extender in the form of an albumin binding domain (ABD) as described by Johansson et al (Structure, specificity, and mode of interaction for bacterial albumin-binding modules, J. Biol. Chem. 2002 (277): 8114-8120) and subsequently produced and purified as described in Example 3. Subsequently, 13F11-13E8-ABD was conjugated to IRDye800CW (F11E8-ABD-IRD800, conjugation method as described in example 9.2) and the binding affinities of the biparatopic VHH as well as the ABD unit was determined. […] The binding affinity (KD) of F11-E8-ABD-IRD800 to rat serum albumin (RSA) was 30 nM and to mouse serum albumin (MSA) and human serum albumin (HSA) the binding affinity was approximately 200 nM.

B1: 13A12: VHH targeting IGF2R, SEQ ID NO: 289 (protein, listed as Lama glama)
VHH: EVQLVESGGGLVQAGGSLRLSCAASGIIFGANTVGWYRQVPGKERDVVASITSGDSTYYGDSVRGRFTISRDNAKNTMYLQMNSLKPEDTAIYYCRARTTDGSYWGQGTQVTVS
- competition with 13F11 for binding to hIGF2R-ECD (hIGF2R-ECD [1]): compete

B2: 13C11: VHH targeting IGF2R, SEQ ID NO: 297 (protein, listed as Lama glama)
VHH: EVQLVESGGGLVQAGGSLRLSCAASGLTFSSYTMAWYRQAPGKEREVVAAISSGDSIYHEGSVQGRFIISRDNAKNTVYLQMNSLKAEDTAVYYCRANGPGTYWGQGTQVTVSS
- competition with 13F11 for binding to hIGF2R-ECD (hIGF2R-ECD [1]): compete

B4: 13F11-13E8-ABD: 13F11-13E8 re-engineered to include an albumin binding domain (ABD) as half-life extender (protein)
chain: EVQLVESGGRLVQPGDSLRLSCAASGRTFSDNAMGWFRQAPGKERRFVAGISWAGGSTYYSDSVKGRFTISRDNAKNTVYLQMNSLKPEDTAVYYCAAGLRAWVQRMPKDYNYWGQGTQVTVSSGGGGSGGGGSGGGGSEVQLVESGGGLVQAGGSLRLSCAASRSISPMGWYRQAPGKQRELVAIMPSSGPPIYADSVQGRFTISRDNAKNTVYLQMNSLKPEDTAVYYCNVGGGYWGQGTQVTVSS
modifications: left off: large carriers; small tags and cut ends
- fraction of the infused dose still in circulation ([2]; one hour after dosing, estimated serum volume 10 mL): approximately 50%
- Cmax ([2]; rat, i.v., approximately 3 mg/kg, read-out: peak serum level (Cmax)): > 1000 nM

B7: 13A8: VHH targeting IGF2R, SEQ ID NO: 257 (protein, listed as Lama glama)
VHH: EVQLVESGGGLVPAGGSLRLSCAASGRTFSNYAMGWFRQAPGKERKFVATISWSGGVTYYADSVKGRFTISRDNAKNTVYLLMNSLKPEDTAVYYCAAKRDSSSYDHRRYDYWGQGTQVTVSS
- competition with 13F11 for binding to hIGF2R-ECD (hIGF2R-ECD [1]): complete competition; also recorded: compete

Further lines, with some results ahead:

- competition with 13F11 for binding to hIGF2R-ECD (hIGF2R-ECD [1]): compete
B3: 13G10: VHH targeting IGF2R, SEQ ID NO: 305 (protein, listed as Lama glama)
VHH: EVQLVESGGGLVQAGGSLRLSCAASGLTFSSYTMAWYRQAPGKEREVVAAISSGDSIYHEDSVQGRFIISRDNAKNTVYLQMNSLKAEDTAVYYCRANGPGTYWGQGTQVTVSS

- binding to cells in liver sections of SHAM rats (IGF2R; 50 nM, overnight at 4° C.): not to cells in a liver from SHAM rats
- staining of other tissues (kidney, spleen, heart, ileum, brain) (IGF2R; BDL and SHAM rats): no, or minor staining
B5: 13F11-13E8-ABD-AF647: 13F11-13E8-ABD conjugated to Alexa Fluor 647 (conjugate)
chain: EVQLVESGGRLVQPGDSLRLSCAASGRTFSDNAMGWFRQAPGKERRFVAGISWAGGSTYYSDSVKGRFTISRDNAKNTVYLQMNSLKPEDTAVYYCAAGLRAWVQRMPKDYNYWGQGTQVTVSSGGGGSGGGGSGGGGSEVQLVESGGGLVQAGGSLRLSCAASRSISPMGWYRQAPGKQRELVAIMPSSGPPIYADSVQGRFTISRDNAKNTVYLQMNSLKPEDTAVYYCNVGGGYWGQGTQVTVSS
modifications: left off: large carriers; small tags and cut ends
- binding to cells in liver sections of BDL rats (IGF2R; 50 nM, overnight at 4° C.): clearly binds to cells in a liver from BDL rats

- decrease in fluorescence intensity of labelled 13F11 (hIGF2R-ECD [1]; 10 nM labelled 13F11, 250 nM unlabelled competitor): less than 5%
B6: 13E8: VHH targeting IGF2R, SEQ ID NO: 249 (protein, listed as Lama glama)
VHH: EVQLVESGGGLVQAGGSLRLSCAASRSISPMGWYRQAPGKQRELVAIMPSSGPPIYADSVQGRFTISRDNAKNTVYLQMNSLKPEDTAVYYCNVGGGYWGQGTQVTVSS
- competition with 13F11 for binding to hIGF2R-ECD (hIGF2R-ECD [1]): did not compete; also recorded: do not compete

- Kd (hIGF2R-ECD [3]): 1 ± 0.61 nM
B8: 13F11-A647: VHH 13F11 with C-terminal free cysteine conjugated using maleimide chemistry to Alexa Fluor 647 (conjugate)
VHH: EVQLVESGGRLVQPGDSLRLSCAASGRTFSDNAMGWFRQAPGKERRFVAGISWAGGSTYYSDSVKGRFTISRDNAKNTVYLQMNSLKPEDTAVYYCAAGLRAWVQRMPKDYNYWGQGTQVTVSS
